How the values were obtained:
[1] = tested on: HeLa Kyoto; assay: solubility in G1/S (NP-40 vs SDS abundance) (log2 ratio); higher = more soluble; conditions: cell cycle stage: G1/S
[2] = tested on: HeLa Kyoto; assay: melting temperature (median over replicates), in situ; higher = more thermally stable
[3] = tested on: HeLa Kyoto; assay: solubility change mitosis vs G1/S (difference of NP-40 vs SDS log2 ratios) (log2 ratio difference); higher = more soluble in mitosis
[4] = tested on: HeLa Kyoto; assay: thermal stability score vs G1/S (z-score of summed log2 fold changes over temperatures); higher = more thermally stable than in G1/S
[5] = cell cycle stage: early G1 (4.5 h after nocodazole release)
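For melting temperature (median over replicates), in situ in this document: HeLa Kyoto cells synchronized by double thymidine or nocodazole block, proteins quantified by TMT10plex mass spectrometry, three independent biological replicates.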
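For solubility change mitosis vs G1/S (difference of NP-40 vs SDS log2 ratios) in this document: synchronized HeLa Kyoto cells (double thymidine block for G1/S, nocodazole release for mitosis), protein amounts in NP-40 versus SDS lysates quantified by mass spectrometry, three biological replicates.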
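For solubility in G1/S (NP-40 vs SDS abundance) in this document: HeLa Kyoto cells arrested at G1/S by double thymidine block, proteins quantified by TMT10plex mass spectrometry in mild NP-40 versus SDS extracts, three biological replicates.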
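For thermal stability score vs G1/S (z-score of summed log2 fold changes over temperatures) in this document: synchronized HeLa Kyoto cells, proteins quantified by TMT10plex mass spectrometry, three biological replicates, mitosis taken 0.5 h after nocodazole release, G1/S directly after double thymidine block.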

Sequence	solubility in G1/S (log2) [1]	melting temperature ([2]; cell cycle stage: G1/S)	melting temperature ([2]; cell cycle stage: mitosis)	solubility change mitosis (log2) [3]	thermal stability score [4, 5]	thermal stability score ([4]; cell cycle stage: mitosis)
MNFLRGVMGGQSAGPQHTEAETIQKLCDRVASSTLLDDRRNAVRALKSLSKKYRLEVGIQAMEHLIHVLQTDRSDSEIIGYALDTLYNIISNEEEEEVEENSTRQSEDLGSQFTEIFIKQQENVTLLLSLLEEFDFHVRWPGVKLLTSLLKQLGPQVQQIILVSPMGVSRLMDLLADSREVIRNDGVLLLQALTRSNGAIQKIVAFENAFERLLDIISEEGNSDGGIVVEDCLILLQNLLKNNNSNQNFFKEGSYIQRMKPWFEVGDENSGWSAQKVTNLHLMLQLVRVLVSPTNPPGATSSCQKAMFQCGLLQQLCTILMATGVPADILTETINTVSEVIRGCQVNQDYFASVNAPSNPPRPAIVVLLMSMVNERQPFVLRCAVLYCFQCFLYKNQKGQGEIVSTLLPSTIDATGNSVSAGQLLCGGLFSTDSLSNWCAAVALAHALQENATQKEQLLRVQLATSIGNPPVSLLQQCTNILSQGSKIQTRVGLLMLLCTWLSNCPIAVTHFLHNSANVPFLTGQIAENLGEEEQLVQGLCALLLGISIYFNDNSLESYMKEKLKQLIEKRIGKENFIEKLGFISKHELYSRASQKPQPNFPSPEYMIFDHEFTKLVKELEGVITKAIYKSSEEDKKEEEVKKTLEQHDNIVTHYKNMIREQDLQLEELRQQVSTLKCQNEQLQTAVTQQVSQIQQHKDQYNLLKIQLGKDNQHQGSYSEGAQMNGIQPEEIGRLREEIEELKRNQELLQSQLTEKDSMIENMKSSQTSGTNEQSSAIVSARDSEQVAELKQELATLKSQLNSQSVEITKLQTEKQELLQKTEAFAKSVEVQGETETIIATKTTDVEGRLSALLQETKELKNEIKALSEERTAIKEQLDSSNSTIAILQTEKDKLELEITDSKKEQDDLLVLLADQDQKILSLKNKLKDLGHPVEEEDELESGDQEDEDDESEDPGKDLDHI [USO1]	0.289	51.2 °C	50.6 °C	-0.0652	2.79	1.73
MAVARAALGPLVTGLYDVQAFKFGDFVLKSGLSSPIYIDLRGIVSRPRLLSQVADILFQTAQNAGISFDTVCGVPYTALPLATVICSTNQIPMLIRRKETKDYGTKRLVEGTINPGETCLIIEDVVTSGSSVLETVEVLQKEGLKVTDAIVLLDREQGGKDKLQAHGIRLHSVCTLSKMLEILEQQKKVDAETVGRVKRFIQENVFVAANHNGSPLSIKEAPKELSFGARAELPRIHPVASKLLRLMQKKETNLCLSADVSLARELLQLADALGPSICMLKTHVDILNDFTLDVMKELITLAKCHEFLIFEDRKFADIGNTVKKQYEGGIFKIASWADLVNAHVVPGSGVVKGLQEVGLPLHRGCLLIAEMSSTGSLATGDYTRAAVRMAEEHSEFVVGFISGSRVSMKPEFLHLTPGVQLEAGGDNLGQQYNSPQEVIGKRGSDIIIVGRGIISAADRLEAAEMYRKAAWEAYLSRLGV [UMPS]	0.169	53.9 °C	53 °C	-0.08	-0.259	-1.37
MEPRAVAEAVETGEEDVIMEALRSYNQEHSQSFTFDDAQQEDRKRLAELLVSVLEQGLPPSHRVIWLQSVRILSRDRNCLDPFTSRQSLQALACYADISVSEGSVPESADMDVVLESLKCLCNLVLSSPVAQMLAAEARLVVKLTERVGLYRERSFPHDVQFFDLRLLFLLTALRTDVRQQLFQELKGVRLLTDTLELTLGVTPEGNPPPTLLPSQETERAMEILKVLFNITLDSIKGEVDEEDAALYRHLGTLLRHCVMIATAGDRTEEFHGHAVNLLGNLPLKCLDVLLTLEPHGDSTEFMGVNMDVIRALLIFLEKRLHKTHRLKESVAPVLSVLTECARMHRPARKFLKAQVLPPLRDVRTRPEVGEMLRNKLVRLMTHLDTDVKRVAAEFLFVLCSESVPRFIKYTGYGNAAGLLAARGLMAGGRPEGQYSEDEDTDTDEYKEAKASINPVTGRVEEKPPNPMEGMTEEQKEHEAMKLVTMFDKLSRNRVIQPMGMSPRGHLTSLQDAMCETMEQQLSSDPDSDPD [RIC8A]	-0.322	51.6 °C	49.6 °C	0.342	1.87	-0.505
MGEPQGSMRILVTGGSGLVGKAIQKVVADGAGLPGEDWVFVSSKDADLTDTAQTRALFEKVQPTHVIHLAAMVGGLFRNIKYNLDFWRKNVHMNDNVLHSAFEVGARKVVSCLSTCIFPDKTTYPIDETMIHNGPPHNSNFGYSYAKRMIDVQNRAYFQQYGCTFTAVIPTNVFGPHDNFNIEDGHVLPGLIHKVHLAKSSGSALTVWGTGNPRRQFIYSLDLAQLFIWVLREYNEVEPIILSVGEEDEVSIKEAAEAVVEAMDFHGEVTFDTTKSDGQFKKTASNSKLRTYLPDFRFTPFKQAVKETCAWFTDNYEQARK [TSTA3]	0.141	59.3 °C	58.2 °C	-0.116	-3.68	-2.17

Reference: the supplement of paper PMC5998384
